Measured values taken from paper PMC8415103 (Biochemistry, 2021).

What was measured:
NikS = NikS (Streptomyces tendae, UniProt Q9F2E5); assay: steady-state amide ligation kinetics, substrate inhibition model; format: biochemical; settings: HPHT as co-substrate
[1] = substrate: N[C@H](C(=O)O)[C@H]1O[C@@H](n2ccc(=O)[nH]c2=O)[C@H](OP(=O)(O)O)[C@@H]1O; assay: as above; format: biochemical, Streptomyces tendae; settings: HPHT as co-substrate
[2] = substrate: N[C@H](C(=O)O)[C@H]1O[C@@H](n2cc(C(=O)O)c(=O)[nH]c2=O)[C@H](O)[C@@H]1O; assay: steady-state amide ligation kinetics, Michaelis-Menten fit; format: biochemical, Streptomyces asoensis; settings: 200 μM CPOAA, 1 mM ATP, 3 mM MgCl2
[3] = substrate: N[C@H](C(=O)O)[C@H]1O[C@@H](n2ccc(=O)[nH]c2=O)[C@H](O)[C@@H]1O; assay: as above; format: biochemical, Streptomyces asoensis; settings: 200 μM CPOAA, 1 mM ATP, 3 mM MgCl2
[4] = substrate: N[C@H](C(=O)O)[C@H]1O[C@@H](n2ccc(=O)[nH]c2=O)[C@H](OP(=O)(O)O)[C@@H]1O; assay: as above; format: biochemical, Streptomyces asoensis; settings: 200 μM CPOAA, 1 mM ATP, 3 mM MgCl2

`N[C@H](C(=O)O)[C@H]1O[C@@H](n2ccc(=O)[nH]c2=O)[C@H](OP(=O)(O)O)[C@@H]1O` [compound 6, AHAP] showed a Ki (NikS) of 111 ± 38 µM.

B1: NikS (Streptomyces tendae) (protein)
chain: MKAEQGPFLLLNTKKIVSRLHEWFPDAARELVVVTTKADIPSADISAYARRFLHLEVVPNLWELSDDELLALARRFGVRRILSLGEREVLRAARIRAELGLPGQSLASATAYRDKHVMKSTLAAAGIDVAPMRKFRTNDDLAEFAWKVGFPVVVKELDSGASNGTVVLMDEEDLRALPERATAAPRLAEAWVEGDFYHVNGLMKDGEVVLAVPSRNLYSDWFSVAYDAPTMTGMMPDDHPLSERLRSTARQVVAALPAVPDLCAFHLELFHTADDRVVVCEIACRAGAALVSDVHEAVLGVNFHGASLLGQAGRGDQVEIRPTGERLGFVWFPPAKGVLRALPDTCPLPGTVSYRPCGDIGRRYGSSSGLGRPIAEMVFRLTEPDTGAELRRIEEWWDDNVVWEHRTNAVPDRWKTPRRKPADA
Work on B1 yielded a Km [1] of 10.9 ± 2.6 µM and a kcat [1] of 0.0283 ± 0.005 s⁻¹.

B2: PolG (Streptomyces asoensis) (protein)
chain: MFLLLNNKPILHRVPEWFPQARQELIVVSTRSGLGTSAFPELARGFRHLHLVSSLDRPGLEEDLVALCRRFGVRRVLSTGEREVLPAATLRERLGLPGQDVACATAYRDKYTMKSLLTEAGIPVAPMRRLASPADLDAFADEAGFPLVVKSRLSGGSNGTRVLWDGDALTAFTDDWAAGRTAAPDLAEAWVEGDFYHINGLMRDGRILLAQPSYQPYSDWFSVAYDAPGMSGMMPDEDPMSARLRDTAAKVVATMPAVPGVCAFQVEFFHTPDDRLVVCETACRAGGSRMVETHEDTLGVHLHGASLLGQAGRSDQVTIRPTGRRQGYARFPSAHGVLRHLPRRSPLPQTLLYTATGEEGRHYDPATSLGSSVAEIVVSLTGPDTAAELLAVETWWESAVVWQDRRNPVPDRFKSVHRVRPDTRERALHV
With B2 the Km [2] was 334 ± 68 µM, the kcat [2] was 0.0233 ± 0.0067 s⁻¹ and the Km [3] was 931 ± 122 µM. The kcat [3] was 0.0112 ± 0.00067 s⁻¹, the Km [4] was 9.1 ± 0.4 µM and the kcat [4] was 0.0583 ± 0.0033 s⁻¹.
